In the supplement of paper PMC10567573:

B1: FAM98B (parent)
chain: QLDKNSEVYQEVQAMFDTLGIPKS
B2: MED27 (parent)
chain: YNENVYTEDGKLDIWSKSNYQVFQ

Variants of: B1
Experiment: protein stability index of a GFP-peptide fusion (GPS, HEK-293T) (PSI 1-6); higher = more stable
Conditions: c terminus: a fixed tail appended
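Also: lentivirally expressed fusions sorted by FACS into six bins by GFP to DsRed ratio, PSI derived from sequencing read proportions per bin multiplied by bin number.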

| Variant | protein stability index |
| --- | --- |
| D17W | 1.57 |
| L2W | 4.03 |
| L19G | 3.49 |
| D3P | 3.11 |
| V8G | 3.12 |
| I21K | 3.58 |
| K4C | 3 |

Variants of: B2
Experiment: as above
Conditions: c terminus: a fixed tail appended

| Variant | protein stability index |
| --- | --- |
| Q21H | 2.64 |
| Q21V | 1.82 |
| Q21G | 1.59 |
| Q21P | 1.98 |
| Q21A | 2.46 |
| Q21S | 1.97 |
| Q21D | 2.41 |
| Q21I | 2.44 |
| Q21W | 2.45 |
| Q21C | 2.01 |
| Q21E | 2.09 |
| Q21K | 2.44 |
| Q21T | 2.76 |
| Q21L | 2.07 |
| Q21M | 2.21 |
| Q21F | 1.79 |
| Q21R | 2.23 |
| Q21Y | 2.02 |
| Q21N | 2.04 |
| T7W | 1.07 |
| T7S | 1.95 |
| T7V | 2.05 |
| T7Y | 2.46 |
| T7R | 2.06 |
| K11G | 2.22 |
| K11T | 2.43 |

| Variant | protein stability index |
| --- | --- |
| K11C | 1.78 |
| K11A | 2.27 |
| K11H | 2.2 |
| K11W | 2 |
| K11N | 2.56 |
| K11R | 1.96 |
| K11V | 2.04 |
| K11Q | 2.38 |
| K11F | 2.22 |
| K11M | 2.32 |
| K11Y | 1.94 |
| K11P | 2.13 |
| K11S | 2.45 |
| K11I | 2.71 |
| K11E | 2.93 |
| K11D | 3.48 |
| K11L | 1.59 |
| K17A | 2.24 |
| K17S | 1.98 |
| K17R | 1.95 |
| K17P | 2.68 |
| K17C | 1.54 |
| K17I | 1.74 |
| K17F | 1.68 |
| K17G | 2.34 |
| K17Q | 1.89 |

| Variant | protein stability index |
| --- | --- |
| K17D | 2.26 |
| K17W | 1.92 |
| K17E | 2.37 |
| K17N | 2.07 |
| K17M | 2.3 |
| K17Y | 1.98 |
| K17V | 2.17 |
| K17T | 1.84 |
| K17L | 2.22 |
| K17H | 2.43 |
| D9L | 1.77 |
| D9Y | 2.03 |
| D9Q | 1.55 |
| D9N | 1.76 |
| D9F | 1.76 |
| D9T | 1.8 |
| D9I | 1.71 |
| D9M | 1.69 |
| D9W | 2.01 |
| D9E | 2.37 |
| D9A | 1.65 |
| D9P | 2.03 |
| D9K | 2.02 |
| D9V | 1.98 |
| D9C | 1.64 |
| D9S | 1.96 |

| Variant | protein stability index |
| --- | --- |
| D9R | 1.7 |
| D9G | 1.63 |
| D9H | 1.97 |
| V22L | 2.28 |
| V22N | 2.41 |
| V22E | 2.52 |
| V22M | 2.37 |
| V22D | 2.83 |
| V22S | 2.5 |
| V22C | 2.56 |
| V22T | 2.45 |
| V22G | 2.24 |
| V22A | 2.3 |
| V22Q | 2.73 |
| V22I | 2.22 |
| V22Y | 2.42 |
| V22K | 2.4 |
| V22P | 2.66 |
| V22W | 1.76 |
| V22R | 2.21 |
| V22F | 2.79 |
| V22H | 2.27 |
| I14S | 3.23 |
| I14R | 3.23 |
| I14A | 2.9 |
| I14C | 2.92 |

| Variant | protein stability index |
| --- | --- |
| I14N | 3.28 |
| I14Q | 3.07 |
| I14E | 3.87 |
| I14V | 2.62 |
| I14K | 2.71 |
| I14D | 3.48 |
| I14L | 2.49 |
| I14H | 2.83 |
| I14F | 2.3 |
| I14W | 2.15 |
| I14M | 2.65 |
| I14T | 2.78 |
| I14P | 2.29 |
| I14G | 3.29 |
| I14Y | 1.95 |
| E8Q | 1.82 |
| E8N | 2.62 |
| E8M | 1.57 |
| E8T | 1.93 |
| E8D | 1.84 |
| E8A | 2.33 |
| E8W | 1.64 |
| E8G | 1.64 |
| E8F | 1.69 |
| E8I | 1.29 |
| E8C | 2.18 |

| Variant | protein stability index |
| --- | --- |
| E8Y | 1.97 |
| E8R | 1.55 |
| E8V | 1.31 |
| E8P | 1.68 |
| E8S | 1.7 |
| E8L | 1.92 |
| E8H | 2.07 |
| E8K | 1.86 |
| S18F | 1.36 |
| S18T | 2.62 |
| S18W | 1.68 |
| S18P | 2.13 |
| S18G | 1.91 |
| S18Y | 2.26 |
| S18N | 2.69 |
| S18R | 1.52 |
| S18L | 2 |
| S18C | 1.86 |
| S18D | 3.09 |
| S18Q | 2.56 |
| S18A | 2.34 |
| S18E | 3.33 |
| S18H | 2.42 |
| S18V | 2.58 |
| S18K | 1.97 |
| S18I | 1.96 |

| Variant | protein stability index |
| --- | --- |
| S18M | 2.21 |
| D13H | 2.44 |
| D13W | 2.46 |
| D13F | 1.84 |
| D13V | 3 |
| D13R | 2.32 |
| D13I | 2.06 |
| D13T | 1.63 |
| D13P | 2.81 |
| D13Q | 2.05 |
| D13M | 1.79 |
| D13N | 1.76 |
| D13A | 2.12 |
| D13G | 1.88 |
| D13Y | 2.04 |
| D13C | 2.09 |
| D13L | 1.69 |
| D13S | 1.92 |
| D13K | 2.55 |
| D13E | 2.36 |
| N19K | 1.96 |
| N19P | 1.88 |
| N19H | 2.19 |
| N19A | 2.52 |
| N19V | 1.58 |
| N19M | 1.94 |

| Variant | protein stability index |
| --- | --- |
| N19Y | 2.56 |
| N19C | 1.59 |
| N19Q | 2.26 |
| N19T | 1.78 |
| N19F | 1.67 |
| N19E | 3.36 |
| N19L | 1.58 |
| N19S | 2.05 |
| N19I | 1.6 |
| N19G | 1.96 |
| N19D | 2.75 |
| N19W | 1.73 |
| N19R | 2.4 |
| F23H | 2.87 |
| F23I | 2.43 |
| F23D | 3.26 |
| F23A | 2.5 |
| F23Y | 2.31 |
| F23T | 3 |
| F23N | 2.93 |
| F23V | 2.38 |
| F23W | 2.16 |
| F23G | 2.88 |
| F23E | 3.02 |
| F23S | 1.4 |
| F23C | 2.06 |

| Variant | protein stability index |
| --- | --- |
| F23K | 3.22 |
| F23L | 2.41 |
| F23M | 2.28 |
| F23Q | 3.29 |
| F23P | 2.99 |
| L12V | 2.58 |
| L12Y | 1.93 |
| L12K | 2.33 |
| L12C | 2.33 |
| L12D | 3.34 |
| L12P | 2.39 |
| L12T | 2.21 |
| L12S | 2.37 |
| L12E | 3.14 |
| L12A | 2.5 |
| L12H | 2.07 |
| L12Q | 3.1 |
| L12M | 2.07 |
| L12I | 2.23 |
| L12W | 2.2 |
| L12N | 2.37 |
| L12G | 2.63 |
| L12F | 2.19 |
| L12R | 2.01 |
| G10Q | 2.5 |
| G10I | 1.93 |

| Variant | protein stability index |
| --- | --- |
| G10P | 2.42 |
| G10M | 2.73 |
| G10N | 2.54 |
| G10C | 1.97 |
| G10E | 2.65 |
| G10W | 1.99 |
| G10H | 2.61 |
| G10V | 1.96 |
| G10K | 2.91 |
| G10Y | 1.76 |
| G10S | 2.23 |
| G10R | 2.21 |
| G10A | 2.3 |
| G10T | 2.45 |
| G10L | 2.17 |
| G10F | 1.65 |
| G10D | 2.96 |
| S16G | 2.33 |
| S16E | 2.6 |
| S16F | 2.87 |
| S16T | 2.38 |
| S16L | 1.82 |
| S16Y | 2.02 |
| S16H | 1.93 |
| S16W | 1.91 |
| S16V | 2.06 |

| Variant | protein stability index |
| --- | --- |
| S16A | 2.45 |
| S16P | 2.05 |
| S16I | 1.98 |
| S16R | 1.78 |
| S16Q | 2.26 |
| S16C | 2.06 |
| S16K | 2.04 |
| S16M | 1.81 |
| S16D | 3.25 |
| S16N | 2.12 |
| W15C | 3.74 |
| W15F | 2.81 |
| W15M | 3.3 |
| W15Q | 3.89 |
| W15G | 4.19 |
| W15T | 3.7 |
| W15L | 3.32 |
| W15Y | 3.19 |
| W15I | 3.31 |
| W15H | 3.85 |
| W15E | 4.12 |
| W15N | 4.08 |
| W15S | 3.83 |
| W15D | 4.42 |
| W15A | 4.13 |
| W15P | 3.74 |

| Variant | protein stability index |
| --- | --- |
| W15K | 4.03 |
| W15V | 3.5 |
| W15R | 3.64 |
| Q24D | 2.75 |
| Q24N | 2.46 |
| Q24H | 2.17 |
| Q24F | 1.74 |
| Q24M | 1.62 |
| Q24R | 1.86 |
| Q24P | 1.81 |
| Q24A | 1.94 |
| Q24G | 2.21 |
| Q24T | 2.23 |
| Q24S | 1.37 |
| Q24C | 2.3 |
| Q24K | 2.58 |
| Q24W | 2.21 |
| Q24I | 1.6 |
| Q24L | 1.96 |
| Q24Y | 2.01 |
| Q24V | 1.43 |
| Q24E | 2.44 |
| Y20A | 2.49 |
| Y20Q | 2.94 |
| Y20E | 3.2 |
| Y20C | 2.49 |

| Variant | protein stability index |
| --- | --- |
| Y20R | 2.59 |
| Y20T | 2.9 |
| Y20K | 2.76 |
| Y20G | 2.62 |
| Y20P | 3.01 |
| Y20D | 3.38 |
| Y20V | 2.52 |
| Y20S | 2.72 |
| Y20N | 3.28 |
| Y20W | 1.64 |
| Y20I | 2.37 |
| Y20H | 2.58 |
| Y20L | 2.35 |
| Y20F | 2.25 |
| Y20M | 1.92 |
